± gives the uncertainty stated by the source.
Assay: amyloid nucleation score (Sup35N fusion, yeast selection) (log enrichment); library NNK1; higher = more nucleation; inactive = no reads after selection
Summary of the method: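 DiMSum was used to calculate nucleation scores as log enrichment of output over input reads, centred on the mode score of non-aggregating sequences. Sequences with fewer than 100 input reads were not scored. Input and output came from Illumina sequencing of plasmid inserts in psi-negative yeast expressing peptides of 20 random codons fused to Sup35N, induced 24 hours with 100 μM copper sulfate and then grown 7 days at 30°C on medium lacking adenine and uracil.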

Row | Substance | amyloid nucleation score
1 | TVSVANSKWSDTVINMRLDR | 5.72 ± 0.065
2 | FEYCCFSYEIVLELARFRGF | -0.535 ± 1.7
3 | GPFASVFCAYGRVGVM | 0.354 ± 0.68
4 | SFYILTHTNFGTFPLFDDRH | -0.897 ± 0.69
5 | INVMWRYSFWLEFQT | -0.442 ± 0.4
6 | WPLRESCGICERRAWCRSAY | 0.923 ± 0.63
7 | RKFRGLVKLL | 1.28 ± 0.85
8 | MMSSEVLPINSCIRSWANAL | -0.431 ± 0.29
9 | CVIDRWGDIYSNHEGNRSLL | -0.025 ± 0.32
10 | NGKGFNDVVKLRSGRRWGVR | -0.111 ± 1.4
11 | HRPDIHFVVPVTAP | -0.619 ± 0.4
12 | LPGVFAPCSDYLMVMDVGHS | -0.409 ± 0.35
13 | YDYHRNLSNHFLCFTLNWLT | 5.23 ± 0.072
14 | LGFSSVYWESCSL | -0.275 ± 0.58
15 | RYIRLRMFLCLFYLMCLPRR | -1.25 ± 0.75
16 | WCSNVNFDVRVDNIKSFRWF | 5.864 ± 0.053
17 | AKVCLKSVTQFTTHLLMSRG | -0.009 ± 0.77
18 | SSCGFMRNVIITMHKADIDR | inactive
19 | RLSSSIYAFSDIHCGMSEAQ | 0.168 ± 0.26
20 | VSNERSWMRCFFMGSRIAHG | -0.735 ± 0.4
21 | NGFDTKYSLEGLGYSWPMLV | 0.407 ± 0.41
22 | SKDGCSCFDIDVAMEGLLMR | -0.053 ± 1.1
23 | ATRVPPFMEVLSPYH | inactive
24 | WSSTRPCFLFQLRMAMLLCS | 0.154 ± 0.59
25 | KLREFAVLTLESGSFSVYCW | -1.14 ± 1.2

Row | Substance | amyloid nucleation score
26 | WCSAMKISTRAPRWENIWSM | 0.612 ± 0.62
27 | GNFMVW | -0.403 ± 0.58
28 | SYKVTLVYSRHVVGVKVTRI | 0.233 ± 0.86
29 | KGYSSTYGRPSKHYCC | inactive
30 | RSMYVSRRPIVPPLYIGFWE | 0.166 ± 0.48
31 | FSDSKLILRRRNPW | -1.56 ± 1.4
32 | WVDGESAPDDERRQWICDIG | -0.948 ± 1.3
33 | VHNTRYSHVPNKKMRSVIRK | 1.44 ± 0.42
34 | LFGLNWYNNGGRKSGCSDWA | -0.503 ± 0.98
35 | QCAWCTRSVNNMYQTLEYHI | 6.151 ± 0.049
36 | RRHTLSFVTGFCVIGFYGGD | 4.48 ± 0.063
37 | LNMLMMVGVWGYFVITIHTI | 0.68 ± 0.71
38 | IASFKWGFLMDYNLYVSSSG | 0.261 ± 0.38
39 | KVNLTSCSY | -0.059 ± 0.42
40 | VDDHDPKIGSMLPSIPNGVQ | -0.571 ± 0.42
41 | QVKDIGLPMHHACF | -1.36 ± 1.1
42 | RDSITITVNCT | 2.44 ± 0.078
43 | SCGNLIVRPLVGVCHAWNEE | 0.489 ± 0.46
44 | PFRSFLCRVIRALGLY | 0.212 ± 0.95
45 | GYFDMFTKIVVL | 0.856 ± 0.45
46 | YLRDVRLYCVMRK | -0.129 ± 0.38
47 | VPVVDNIVSIL | -0.718 ± 1.7
48 | TSSAFVCVENTLWTEVVEPM | 0.411 ± 0.55
49 | GIRFLWPFLIPRLHKVIARR | inactive
50 | CYLLQWTSFCQQAFSNEMGW | 0.267 ± 0.67

Row | Substance | amyloid nucleation score
51 | LNCCYKKNVGIQDMRTMDIQ | 0.247 ± 1.1
52 | TYGKIMVN | -0.418 ± 1.5
53 | ETEGSELFNFWAGVNWRRIQ | -0.425 ± 1.3
54 | WVSSAAGAAGPVIYWDVALY | -0.612 ± 0.39
55 | NLQSCLVYKVSVGNLPLIYL | -0.45 ± 1.2
56 | FELGWMYSYKMAKLPWYMTC | 0.362 ± 0.99
57 | ANSSF | -0.126 ± 0.54
58 | IGLMRLC | -0.608 ± 1.2
59 | GPTRLDAEG | -0.54 ± 0.87
60 | WSRCSFFGHRYIKSSLLIWG | -0.139 ± 0.44
61 | TNYQRIQHA | -0.903 ± 2.4
62 | RIDYWVIPGAWNSTCWRYTT | 1.49 ± 0.45
63 | HYGVDEAFGRWDGVLMCQKV | -0.134 ± 0.4
64 | TCCNDDKRYIWCIYSRAKMN | -1.55 ± 0.42
65 | FFTIQMGYMALGMW | 1.16 ± 0.23
66 | NVSKDS | -0.063 ± 0.54
67 | LNFDNFLLMWTMLVNRIISD | 0.574 ± 0.97
68 | GNMSCPFVQRREVLLC | -0.383 ± 1.4
69 | VLVFCVTMVRNYSWCIGWRI | 0.035 ± 0.44
70 | LYRDSLKLF | -0.725 ± 0.49
71 | MHHCSFSSLDFTVHK | -1.02 ± 2.4
72 | FSRCPHQALSTECFPFFGS | -0.122 ± 1.4
73 | VMCAGQESESIRGGYSEVNG | 1.17 ± 0.39
74 | RTCSKHYIWYKALIGFALGN | -0.27 ± 0.33
75 | KLTHVNDLLTMVVNVSRAQG | -0.004 ± 1.4

Row | Substance | amyloid nucleation score
76 | YQDFYMLSRLAKLGG | 0.36 ± 0.61
77 | GIIRKVLAEANLNCKVSSYR | -0.488 ± 0.61
78 | GIRVFPMCNFG | inactive
79 | RWFDYDESESVKSVHLNLVR | -1.37 ± 0.89
80 | VIPVFRGSSFA | -0.055 ± 0.66
81 | WSYAIKAISSMGAVTDASRM | -0.136 ± 0.31
82 | QRLGQGIGGEWPTKL | 0.995 ± 0.67
83 | VALDIGFSWALSRLWLKRHF | 0.095 ± 0.29
84 | GICELQRPTYVTLVEVFMVD | -0.49 ± 0.41
85 | RGEKHVRVYRVMSV | -0.192 ± 0.49
86 | TYDVMTLGENVKGLCISARC | -0.412 ± 0.42
87 | YELKQSL | -0.301 ± 0.73
88 | KNAYHFRG | 0.113 ± 0.97
89 | RDVDRGMHQMAPSTGVRLVL | 2.81 ± 0.14
90 | FLNTNEKIKMQPIFPFFLLL | -0.495 ± 0.65
91 | ITRPGKWGRGD | 0.782 ± 0.35
92 | HFICKLND | 0.354 ± 0.34
93 | GYPGCHLFVSWTTVGPVFFY | 8.239 ± 0.047
94 | DISRMMSISRLFFYNNVLFT | -0.524 ± 0.44
95 | LMSYSECQLSLNAYRGGRVE | 0.373 ± 0.55
96 | LFWWKE | -0.292 ± 0.44
97 | SYYIC | 0.583 ± 0.41
98 | FTVSRPIMYIVYNCLHSVCV | 4.61 ± 0.049
99 | CSDSNIPLHNHSWGTSVVDN | 1.31 ± 0.63
100 | SSLWTCREVTDIFIHNCAMI | 1.21 ± 0.79

Row | Substance | amyloid nucleation score
101 | THSRFSYGVVNR | 0.683 ± 1
102 | IHVTGCYLEPSAHF | inactive
103 | MDRIRFLFFW | 0.448 ± 0.69
104 | MVLWW | -0.231 ± 0.58
105 | NDRPMMEVGMDPTPAGVLRE | 0.276 ± 0.49
106 | LCDGFILLSNVLLGPMIYDW | 0.561 ± 0.27
107 | TNLLSLMMFDSKCIISEGIM | -0.567 ± 1.7
108 | STYSSWQDTRVFNLAMLSI | -0.68 ± 0.85
109 | SLKMMIFQRGFYTSIG | 1.75 ± 0.13
110 | RALSH | -0.158 ± 0.74
111 | QMRAFSDLFLLSDY | 0.406 ± 0.46
112 | KEKWRMQICAPGKS | -1.24 ± 0.81
113 | LTRDEGPIEDKNVEARFRVS | 0.098 ± 0.31
114 | TWYLMMENVS | 4.69 ± 0.056
115 | FTRKLPSFVLL | 0.392 ± 0.61
116 | GTSVN | 1.08 ± 0.17
117 | AQQLGMMGVGFMQRWNCRF | -1.74 ± 2.4
118 | LDGTLVLTYL | 0.134 ± 0.42
119 | DNTGQVRIW | -0.562 ± 0.62
120 | HGAMLSSM | -2.06 ± 2.4
121 | LTMLYMLLCDNSLMRDILPD | 0.951 ± 0.88
122 | SLCRGATGGDGWWGVCSSA | 0.614 ± 0.91
123 | LQYAKRDDIDSDVLLYKMYG | 0.203 ± 0.97
124 | SLMDKMPTIVLELVYHAVQI | 0.018 ± 0.49
125 | NMSESCNMDTLYGYDLRQWV | 0.088 ± 0.33

Row | Substance | amyloid nucleation score
126 | RQSRLAYGCVLVYVLTADFG | -0.025 ± 0.29
127 | GHVRFSMHRRSDVCKQGSND | 0.91 ± 0.47
128 | TGPDSISAYQHLFNCS | 1.64 ± 0.54
129 | FLSVASFTRI | 0.246 ± 0.32
130 | EVAFRVTCCSCWLISRNVGR | 2.77 ± 0.15
131 | EVIAGCGLRCRSSNHIVREM | 0.104 ± 0.36
132 | GVTSR | 1.25 ± 0.72
133 | RIWPQIVCDIDIRP | -0.444 ± 0.52
134 | REPVCICLIAAYGRAKPPTG | 0.382 ± 0.84
135 | NFGNVNFVYVTWMVAESSAC | 5.915 ± 0.057
136 | TASHFGNKWV | 0.352 ± 0.32
137 | ILYTNRMCLWSKTSNFLPLR | -0.318 ± 0.29
138 | CHFSYSI | 0.558 ± 1.1
139 | VKSGS | 0.21 ± 0.24
140 | VEPSYMFGYVVDWEHMVLKS | -2.11 ± 2.4
141 | PEVSIFFLFLGMVYLMWQWV | -0.839 ± 0.7
142 | RHMRSHENVGKFWRLSCFVN | -0.36 ± 0.51
143 | GVAMCEEWRLMISE | 0.185 ± 0.74
144 | SRGPRFDCPMLVTVPSTSLE | -1.1 ± 2.4
145 | VTKVTLMLFLSCWLF | -0.677 ± 0.47
146 | FSMGSVWTEERQLCWVPMVW | 1.11 ± 0.94
147 | FRYLVKYRVLH | 0.14 ± 0.44
148 | FRNIDTLLTVHCVSACR | -2.4 ± 2.7
149 | LMLPFVYS | 0.392 ± 0.37
150 | CVTAAEM | 0.762 ± 0.41

Row | Substance | amyloid nucleation score
151 | SDELWLLQFPVLNNKLWEK | 0.726 ± 1.1
152 | DMSFRYLSGSVNLCVVHLRR | -0.244 ± 1.1
153 | FSFISKIIESCYGDFLVGDA | -1.21 ± 0.61
154 | CYVMLINAEND | -0.796 ± 1.4
155 | NLLTWRD | 0.743 ± 0.64
156 | WWSYQF | 0.725 ± 0.39
157 | NVWSKWCERGNSDPIVPQAA | -0.458 ± 0.35
158 | AIHMEHCCFVNVQRILRFVV | 4.68 ± 0.092
159 | YLVRVMFWLLGRCEA | inactive
160 | IRSFPTV | 0.075 ± 0.47
161 | VWFYRLIVSEVGFFRVKLKM | -1.58 ± 1.4
162 | CGSRLGEMRAVTGPHLTPMR | -0.233 ± 1.1
163 | LMLVHRVF | -0.034 ± 0.51
164 | WVILMMLCILRGRELSVAYW | -0.446 ± 0.99
165 | LVGMCNHTYDS | 0.998 ± 0.66
166 | TVTYLLCYYDSALYRCATGL | 5.553 ± 0.052
167 | ELMCNTQSLSAETCFGKKSY | 0.97 ± 0.63
168 | RGLTYVRVVGLARIGSACSV | 0.335 ± 0.53
169 | TFQHCLRYWPNHSRLNSCRL | 0.155 ± 0.25
170 | STFAALNVKSCGVCLMWLLD | 0.1 ± 0.84
171 | RRWRTFLMRCKRNDTSKIRR | -1.36 ± 1.2
172 | TRLVVLRSW | 1.14 ± 0.98
173 | FSSLMLLTGEYSLSIWCKRS | 1 ± 0.8
174 | MIGNRY | 0.091 ± 0.26
